Here are results for three molecules from US20100119494A1, “METHODS AND COMPOSITIONS RELATED TO MODULATING THE EXTRACELLULAR STEM CELL ENVIRONMENT” (Massachusetts Institute of Technology, priority 2005, published 2010).

The subject of experiment [1] is differentiating ES cells (J1). The experiment is described as follows: Confocal microscopy of vWF and Oct-4 staining in differentiating ES cells. As to conditions: for vWF expression (confocal microscopy): FIG. 15A, treated differentiating ES cells; for Oct-4 levels of differentiating cells (confocal microscopy): FIG. 15B. The class given is cell-based, mouse. As to the method: (§1) Mouse embryonic stem cells (J1) (gift from Bevin Engelward, Mass. Institute of Technology, Cambridge, Mass.) were grown in DMEM with 2 mM L-glutamine (GIBCO, Carlsbad, Calif.) adjusted to contain […] sodium pyruvate, 10 mM nonessential amino acids and 1.5 g/L sodium bicarbonate, with 15% fetal bovine serum (Hyclone, South Logan, Utah) and supplemented with 100 units/mL penicillin G (Sigma, St. Louis, Mo.), 100 μg/mL streptomycin sulfate (Sigma), 30 mM beta-mercaptoethanol (Sigma) and 1000 units/ml murine leukemia inhibitory factor, LIF (Chemicon, Temecula, Calif.). The cells were plated in 10 cm^2 cell culture dishes, coated with 0.1% gelatin B (Sigma) and grown at 37° C. in a 5% CO2 humidifier incubator. The culture medium was changed every 2 days. The cells were subcultured at a split ratio of 1:10 when they reached 80% to 90% confluency, using a 0.25% trypsin-EDTA solution (Sigma). To induce formation of embryoid bodies and differentiation into endothelial cells, J1 cells were plated at a density of 1.25×10^5 cells/100 mm dish, or 3×10^4 cells/6 wells and cultured in the absence of LIF. Fresh media was replenished every 2 days.
(§2) Heparinase III (Hep-III) was prepared as described previously (Godavarti, R., et al. (1996) Biochemistry 35, 6846-52). Heparinase I (Hep-I) was a generous gift of Momenta Pharmaceuticals (Cambridge, Mass.). Sodium chlorate and heparin were purchased from Sigma and Cambrex BioWhittaker (East Rutherford, N.J.), respectively. To enzymatically modify the HSGAG glycome signature of the cells, cells were washed with phosphate buffer saline (PBS) and incubated with Hep-I or Hep-III for 30 minutes every day at 37° C. in serum free DMEM. Digested HSGAG residues were removed by washing the cells, and cells were then fed with fresh media. In an additional experiment, cells were cultured with medium containing sodium chlorate, which blocks the sulfation of HSGAGs. In a reversal experiment, heparin was added to the culture to overcome the chlorate induced synthetic block. Treated cells were analyzed for differentiation into endothelial cells between day 3 and day 15. Hep-III was added to the cells at a concentration of 2.5 μg/mL, Hep-I was added at a concentration of 1.5 μg/mL, sodium chlorate at 10 mM and heparin (20 μg). The concentrations of enzymes were optimized to exhaustively cleave all cell surface HSGAGs in the given period of time. All enzymes and chemicals were diluted in serum free DMEM.
For microscopic analysis of endothelial cells, the differentiating J1 cells were fixed in cold methanol at designated time points, blocked in goat serum and probed overnight with a rabbit primary antibody against vWF, an endothelial cell marker, or Oct-4, a stem cell marker. The sections were washed and re-probed with a goat secondary antibody coupled to FITC. The nuclei were counterstained with propidium iodide. Images were captured using a […] LSM510 confocal microscope at a 512×512 pixels resolution (Leica, Bannockburn, Ill.). Fluorochromes were excited with 488 nm and 543 nm laser lines, and the images were captured using 505-530 BP and 565-615 BP filters at a 512×512 pixels resolution.
To dissect the role of HSGAG structure in ES cell differentiation, the cell surface and extracellular HSGAG moieties of differentiating ES cells were modified using an enzymatic and pharmacological approach. Specifically, differentiating ES cells were incubated with Hep-I or Hep-III for 30 minutes every day to cleave the cell surface and extracellular matrix (ECM) HSGAGs at structurally distinct sites, or cultured in media supplemented with sodium chlorate, which is a pharmacological inhibitor of HSGAG biosynthesis (Safaiyan, F., et al. (1999) J Biol Chem 274, 36267-73). Hep-I cleaves HSGAGs at highly sulfated regions, and Hep-III cleaves HSGAGs at undersulfated regions (Linhardt, R. J., et al. (1990) Biochemistry 29, 2611-7; Godavarti, R., and Sasisekharan, R. (1996) Biochem Biophys Res Commun 229, 770-7). […]

The subject of experiment [2] is differentiating ES cells (J1). The experiment is described as follows: Real-time PCR of Oct-4, VEGF-R2, VE-cadherin and eNOS transcripts in differentiating ES cells. The class given is cell-based, mouse. As to conditions: real-time PCR, FIG. 19. The method, then:
as §1, §2
RNA was isolated from J1 cells using TRIzol (Invitrogen, Carlsbad, Calif.) and RNAlater (Qiagen, Valencia, Calif.) according to the manufacturer's protocol. Single-stranded cDNA was generated via oligo-dT primed reverse transcription, and genes serving as markers for differentiation were quantified using an Abi Prism 7700 real-time PCR thermocycler (Applied Biosystems, Foster City, Calif.). Expression levels were obtained for the marker genes Oct-4, VE-cadherin, VEGF-R2, and eNOS, with β-actin used as a control. PCR conditions involved denaturation for 10 min at 95° C., followed by 40 cycles of denaturation for 20 sec at 94° C., and annealing and extension for 1 min at 60° C. cDNA isolated from J1 cells and primers for the described genes were mixed with SYBR Green PCR Mastermix (Applied Biosystems) for real-time quantification according to the manufacturers instructions. Primers used were 5′-[…]-3′ (SEQ ID NO: 1) and 5′-[…]-3′ (SEQ ID NO: 2) for Oct-4; 5′-[…]-3′ (SEQ ID NO: 3) and 5′-[…]-3′ (SEQ ID NO: 4) for VE-cadherin; 5′-[…]-3′ (SEQ ID NO: 5) and 5′-[…]-3′ (SEQ ID NO: 6) for TIE-2; 5′-[…]-3′ (SEQ ID NO: 7) and 5′-[…]-3′ (SEQ ID NO: 8) for VEGF-R2; 5′-[…]-3′ (SEQ ID NO: 9) and 5% […]-3′ (SEQ ID NO: 10) for ENOS; 5′-[…]-'3 (SEQ ID NO: 11) and 5′-[…]-'3 (SEQ ID NO: 12) for 13-actin. The sulfotransferase primers and conditions were chosen. […]

With `[O-][Cl+2]([O-])O` [sodium chlorate, reference compound], in experiment [1], the “vWF expression (confocal microscopy)” value was “inhibitory effects” and the “Oct-4 levels of differentiating cells (confocal microscopy)” value (“Oct-4 levels of differentiating cells” for short) is listed as “none of the treatments had significant effects”. For the same molecule, in experiment [2], the Oct-4 transcript levels entry is reported as “no effect”, the VE-cadherin transcript levels result is on record as “significantly decreased” and the eNOS transcript levels entry is given as “significantly decreased”.

B1: Hep-I: HSGAG-degrading enzyme; cleaves HSGAGs at highly sulfated regions; gift of Momenta Pharmaceuticals (protein, UniProt Q05819 22-384, looked up)
Heparin lyase I: QQKKSGNIPYRVNVQADSAKQKAIIDNKWVAVGINKPYALQYDDKLRFNGKPSYRFELKAEDNSLEGYAAGETKGRTELSYSYATTNDFKKFPPSVYQNAQKLKTVYHYGKGICEQGSSRSYTFSVYIPSSFPDNATTIFAQWHGAPSRTLVATPEGEIKTLSIEEFLALYDRMIFKKNIAHDKVEKKDKDGKITYVAGKPNGWKVEQGGYPTLAFGFSKGYFYIKANSDRQWLTDKADRNNANPENSEVMKPYSSEYKTSTIAYKMPFAQFPKDCWITFDVAIDWTKYGKEANTILKPGKLDVMMTYTKNKKPQKAHIVNQQEILIGRNDDDGYYFKFGIYRVGNSTVPVTYNLSGYSETAR
Take B1: in experiment [1], the “vWF expression (confocal microscopy)” value is recorded as “inhibitory effects” and the “Oct-4 levels of differentiating cells” value is recorded as “none of the treatments had significant effects”. In experiment [2], the Oct-4 transcript levels result is given as “no effect”, the VE-cadherin transcript levels result is “significantly decreased” and the eNOS transcript levels entry was “significantly decreased”.

B2: Hep-III: HSGAG-degrading enzyme; cleaves HSGAGs at undersulfated regions (protein, UniProt Q59289 25-659, looked up)
Heparin-sulfate lyase: QSSSITRKDFDHINLEYSGLEKVNKAVAAGNYDDAAKALLAYYREKSKAREPDFSNAEKPADIRQPIDKVTREMADKALVHQFQPHKGYGYFDYGKDINWQMWPVKDNEVRWQLHRVKWWQAMALVYHATGDEKYAREWVYQYSDWARKNPLGLSQDNDKFVWRPLEVSDRVQSLPPTFSLFVNSPAFTPAFLMEFLNSYHQQADYLSTHYAEQGNHRLFEAQRNLFAGVSFPEFKDSPRWRQTGISVLNTEIKKQVYADGMQFELSPIYHVAAIDIFLKAYGSAKRVNLEKEFPQSYVQTVENMIMALISISLPDYNTPMFGDSWITDKNFRMAQFASWARVFPANQAIKYFATDGKQGKAPNFLSKALSNAGFYTFRSGWDKNATVMVLKASPPGEFHAQPDNGTFELFIKGRNFTPDAGVFVYSGDEAIMKLRNWYRQTRIHSTLTLDNQNMVITKARQNKWETGNNLDVLTYTNPSYPNLDHQRSVLFINKKYFLVIDRAIGEATGNLGVHWQLKEDSNPVFDKTKNRVYTTYRDGNNLMIQSLNADRTSLNEEEGKVSYVYNKELKRPAFVFEKPKKNAGTQNFVSIVYPYDGQKAPEISIRENKGNDFEKGKLNLTLTINGKQQLVLVP
With B2, in experiment [1], the “vWF expression (confocal microscopy)” value is “inhibitory effects” and the “Oct-4 levels of differentiating cells” value was “none of the treatments had significant effects”. For the same molecule, in experiment [2], the Oct-4 transcript levels entry is recorded as “no effect”, the VE-cadherin transcript levels result is listed as “decreased” and the eNOS transcript levels entry is “decreased”.
